These results are taken from US20210292386A1.

Read-outs that look alike come from different tables or passages of the source.

Holding throughout (experiment): cell-based or functional assay
Test [1] addresses T1, high-affinity IL2 receptor (IL2Rαβγ) of the mouse T cell line CTLL-2 (mouse) (UniProt P01590).
T1 sequence (looked up) 1: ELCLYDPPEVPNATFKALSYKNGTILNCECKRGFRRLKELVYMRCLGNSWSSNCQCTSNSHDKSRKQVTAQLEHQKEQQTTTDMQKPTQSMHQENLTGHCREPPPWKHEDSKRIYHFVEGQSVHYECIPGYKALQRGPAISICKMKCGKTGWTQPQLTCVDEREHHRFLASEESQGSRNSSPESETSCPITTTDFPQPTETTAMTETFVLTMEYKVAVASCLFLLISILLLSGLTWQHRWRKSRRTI
T1 sequence (looked up) 2: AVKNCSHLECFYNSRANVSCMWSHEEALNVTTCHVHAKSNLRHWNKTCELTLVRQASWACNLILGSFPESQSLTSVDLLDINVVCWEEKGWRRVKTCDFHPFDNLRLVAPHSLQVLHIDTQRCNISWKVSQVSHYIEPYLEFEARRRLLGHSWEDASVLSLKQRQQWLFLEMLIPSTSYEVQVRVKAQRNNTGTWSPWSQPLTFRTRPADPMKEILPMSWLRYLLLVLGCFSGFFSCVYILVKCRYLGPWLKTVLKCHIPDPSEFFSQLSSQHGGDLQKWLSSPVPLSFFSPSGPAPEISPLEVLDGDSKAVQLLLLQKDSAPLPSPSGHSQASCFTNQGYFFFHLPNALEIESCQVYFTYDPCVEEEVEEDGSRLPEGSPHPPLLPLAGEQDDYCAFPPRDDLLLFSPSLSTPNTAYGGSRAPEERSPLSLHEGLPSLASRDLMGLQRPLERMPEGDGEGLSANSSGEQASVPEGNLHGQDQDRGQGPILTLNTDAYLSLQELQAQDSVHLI
T1 sequence (looked up) 3: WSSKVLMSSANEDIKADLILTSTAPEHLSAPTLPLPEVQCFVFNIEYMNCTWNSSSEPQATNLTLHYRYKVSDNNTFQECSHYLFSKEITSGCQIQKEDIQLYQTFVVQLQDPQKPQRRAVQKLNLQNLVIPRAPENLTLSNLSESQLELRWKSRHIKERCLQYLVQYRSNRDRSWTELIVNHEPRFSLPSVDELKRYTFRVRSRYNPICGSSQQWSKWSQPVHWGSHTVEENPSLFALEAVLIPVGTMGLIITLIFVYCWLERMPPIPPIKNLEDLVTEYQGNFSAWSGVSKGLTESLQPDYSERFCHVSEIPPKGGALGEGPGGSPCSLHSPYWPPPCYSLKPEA

Test [2] concerns the target intermediate-affinity IL2 receptor (IL2Rβγ), human (human) (UniProt P14784).
The target in test [3] is high-affinity IL2 receptor (IL2Rαβγ), human, on CD4+CD25+FoxP3+ regulatory T cells (human) (UniProt P01589). Further details: unit not given beside the values.
The target of test [4] is intermediate-affinity IL2 receptor (IL2Rβγ), human (human) (UniProt P14784). On the set-up: unit not given beside the values.
The target of test [5] is T1, high-affinity IL2 receptor (IL2Rαβγ) of the mouse T cell line CTLL-2 (mouse). The source holds these as a separate data set.

UniProt P14784, sequence (P14784 27-551, chain 1 of 2): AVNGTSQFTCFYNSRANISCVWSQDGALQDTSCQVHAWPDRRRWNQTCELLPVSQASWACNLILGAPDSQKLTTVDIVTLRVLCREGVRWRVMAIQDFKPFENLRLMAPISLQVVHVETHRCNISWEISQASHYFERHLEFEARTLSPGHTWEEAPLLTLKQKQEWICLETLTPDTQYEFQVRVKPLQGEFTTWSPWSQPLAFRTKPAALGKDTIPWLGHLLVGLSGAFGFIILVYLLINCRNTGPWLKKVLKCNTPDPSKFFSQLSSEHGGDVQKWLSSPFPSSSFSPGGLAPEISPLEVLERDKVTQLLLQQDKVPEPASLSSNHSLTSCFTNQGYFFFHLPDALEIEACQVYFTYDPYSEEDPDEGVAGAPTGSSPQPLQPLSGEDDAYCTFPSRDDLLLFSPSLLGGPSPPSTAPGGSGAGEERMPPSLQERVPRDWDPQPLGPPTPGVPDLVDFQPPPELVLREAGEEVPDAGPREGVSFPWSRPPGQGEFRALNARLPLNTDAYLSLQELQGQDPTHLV
UniProt P14784, sequence (P31785 23-369, chain 2 of 2, further chain): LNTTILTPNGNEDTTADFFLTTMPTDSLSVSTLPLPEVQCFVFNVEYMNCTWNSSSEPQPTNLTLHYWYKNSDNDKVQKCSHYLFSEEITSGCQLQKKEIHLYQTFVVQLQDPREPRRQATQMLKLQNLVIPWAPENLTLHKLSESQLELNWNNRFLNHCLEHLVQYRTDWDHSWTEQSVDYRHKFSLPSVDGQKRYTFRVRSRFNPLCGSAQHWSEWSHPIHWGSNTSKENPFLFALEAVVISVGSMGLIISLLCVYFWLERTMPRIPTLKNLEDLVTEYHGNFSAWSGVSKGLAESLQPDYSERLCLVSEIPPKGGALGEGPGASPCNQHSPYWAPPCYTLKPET
UniProt P01589, sequence (P01589 22-272, chain 1 of 3): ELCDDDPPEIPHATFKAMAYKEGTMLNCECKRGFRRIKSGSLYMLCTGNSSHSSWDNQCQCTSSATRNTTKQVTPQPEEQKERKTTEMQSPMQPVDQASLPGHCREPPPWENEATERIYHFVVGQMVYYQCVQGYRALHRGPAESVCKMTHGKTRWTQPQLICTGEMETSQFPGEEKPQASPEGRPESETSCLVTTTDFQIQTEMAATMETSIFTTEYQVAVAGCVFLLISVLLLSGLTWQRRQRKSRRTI
UniProt P01589, sequence (P14784 27-551, chain 2 of 3, further chain): as the sequence (P14784 27-551, chain 1 of 2) above
UniProt P01589, sequence (P31785 23-369, chain 3 of 3, further chain): as the sequence (P31785 23-369, chain 2 of 2, further chain) above

In test [1], hAlb-hIL2 (ligand) yielded an EC50 of CTLL-2 proliferation (%-supernatant) of 0.214. The same substance showed an EC50 of TF-1 IL2Rβγ proliferation (%-supernatant) in test [2] of 2.35. In test [3], this substance displayed an EC50 of STAT5 phosphorylation, CD4+CD25+FoxP3+ Treg (%-supernatant) of 0.111. Besides, in test [4], the EC50 of STAT5 phosphorylation, CD4+CD25- T helper cells (%-supernatant) came to 4.36 and the EC50 of STAT5 phosphorylation, CD8+ cytotoxic T cells (%-supernatant) is 6.84. Besides, in test [5], the EC50 of CTLL-2 proliferation (%-supernatant) is 0.115.
